Measurements published in patent US20230136252A1 (NANJING LEGEND BIOTECH, published 2023).

Experiments:
[1] = biological target: T1, recombinant mouse GPC2-His (mouse, UniProt Q8BKV1 22-556, limits assumed); assay: ELISA, plate coated with 2 ug/mL rmGPC2, VHH-hIgG1Fc detected with HRP goat anti-human IgG, OD450
T1 construct: Bought protein; also called murine GPC2; RD System Cat #2355-GP; not shown: His tag
T1 sequence (looked up): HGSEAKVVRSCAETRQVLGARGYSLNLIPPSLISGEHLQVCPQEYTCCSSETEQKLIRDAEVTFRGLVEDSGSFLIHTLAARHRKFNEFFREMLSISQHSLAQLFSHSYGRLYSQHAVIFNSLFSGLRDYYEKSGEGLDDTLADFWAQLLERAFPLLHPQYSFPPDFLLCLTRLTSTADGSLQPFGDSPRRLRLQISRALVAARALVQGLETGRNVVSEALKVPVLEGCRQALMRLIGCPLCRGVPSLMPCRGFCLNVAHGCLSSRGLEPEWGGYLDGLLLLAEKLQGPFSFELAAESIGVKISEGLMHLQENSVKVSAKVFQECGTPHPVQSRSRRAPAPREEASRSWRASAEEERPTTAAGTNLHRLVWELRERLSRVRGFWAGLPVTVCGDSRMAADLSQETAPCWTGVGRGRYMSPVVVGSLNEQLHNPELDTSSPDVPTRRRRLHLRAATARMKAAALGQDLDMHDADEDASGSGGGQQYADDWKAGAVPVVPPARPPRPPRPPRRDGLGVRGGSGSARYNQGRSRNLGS
Experimental: (§1) To evaluate the specificity of humanized anti-GPC2 VHH5 to recombinant human GPC2 protein, an ELISA-based binding assay was conducted to determine the differential target proteins binding of anti-GPC2 VHH5. Briefly, microplates were coated with 2 μg/mL recombinant human GPC1-His (RD System, Cat #4519-GP), GPC2-His (RD System, Cat #2304-GP), GPC3-His (ACRO, Cat #GP3-H5223), GPC4-Fc (RD System, Cat #9195-GP), GPC5-His (RD System, Cat #2607-G5/CF), GPC6-His (RD System, Cat #2845-GP) or recombinant mouse GPC2-His (RD System, Cat #2355-GP) proteins. Recombinant human protein coated plates were blocked with skim milk. Serially diluted humanized VHH-hIgG1Fc recombinant antibodies were added to each well of the plates and incubated at 4° C. for 1.5 h. Samples were further labelled with HRP-conjugated goat anti human IgG (H+L) secondary antibody (Genescript, Cat #A00166-1) and signal was developed with 3,3′,5,5′-Tetramethylbenzidine (TMB) substrate according to manufacturer's instruction. For the GPC4, VHH-His recombinant antibodies and anti-His tag secondary antibody (Genescript, Cat #A00612) were added to the GPC4-Fc coated plates instead. Optic density at 450 nm was measured by plate reader.

[2] = biological target: T2, recombinant human GPC1-His (human, UniProt P35052 24-530, limits assumed); assay: ELISA, plate coated with 2 ug/mL rhGPC1-his, VHH-hIgG1Fc detected with HRP goat anti-human IgG, OD450
T2 construct: Bought protein; also called RD System Cat #4519-GP; not shown: His tag
T2 sequence (looked up): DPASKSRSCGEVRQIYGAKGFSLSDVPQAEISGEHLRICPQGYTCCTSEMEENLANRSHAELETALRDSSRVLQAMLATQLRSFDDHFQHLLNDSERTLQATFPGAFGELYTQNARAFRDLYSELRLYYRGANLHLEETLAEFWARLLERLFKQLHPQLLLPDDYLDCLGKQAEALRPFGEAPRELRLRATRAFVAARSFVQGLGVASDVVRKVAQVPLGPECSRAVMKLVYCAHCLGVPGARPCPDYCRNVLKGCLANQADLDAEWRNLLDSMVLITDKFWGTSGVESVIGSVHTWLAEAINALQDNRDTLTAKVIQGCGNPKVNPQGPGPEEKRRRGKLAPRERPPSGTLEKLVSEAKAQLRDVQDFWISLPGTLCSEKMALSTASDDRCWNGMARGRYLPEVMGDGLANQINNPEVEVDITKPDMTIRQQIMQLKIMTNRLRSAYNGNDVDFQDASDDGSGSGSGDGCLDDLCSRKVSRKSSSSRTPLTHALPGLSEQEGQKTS
Experimental: as §1

[3] = biological target: T3, recombinant human GPC5-His (human, UniProt P78333 25-551, limits assumed); assay: ELISA, plate coated with 2 ug/mL rhGPC5-his, VHH-hIgG1Fc detected with HRP goat anti-human IgG, OD450
T3 construct: Bought protein; also called RD System Cat #2607-G5/CF; not shown: His tag
T3 sequence (looked up): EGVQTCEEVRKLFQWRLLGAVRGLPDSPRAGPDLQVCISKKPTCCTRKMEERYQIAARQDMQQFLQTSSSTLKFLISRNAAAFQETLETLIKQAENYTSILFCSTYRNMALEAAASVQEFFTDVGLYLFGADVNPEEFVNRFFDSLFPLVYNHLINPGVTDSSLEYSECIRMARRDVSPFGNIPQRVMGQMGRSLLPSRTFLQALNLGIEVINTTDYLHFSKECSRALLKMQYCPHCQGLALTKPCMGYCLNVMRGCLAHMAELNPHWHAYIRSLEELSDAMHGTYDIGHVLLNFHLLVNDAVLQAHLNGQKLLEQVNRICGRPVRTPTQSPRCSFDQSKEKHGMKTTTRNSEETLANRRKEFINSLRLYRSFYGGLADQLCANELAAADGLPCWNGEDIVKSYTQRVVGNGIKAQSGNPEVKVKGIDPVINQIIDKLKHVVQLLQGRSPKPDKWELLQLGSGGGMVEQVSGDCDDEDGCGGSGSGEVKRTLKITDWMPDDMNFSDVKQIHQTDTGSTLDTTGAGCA
Experimental: as §1

Measured: binding result

B1: AS78117VH4-hIgG1Fc (Fc fusion)
chain: EVQLVESGGGLVQPGGSLRLSCIVSRYTYATYSMAWFRQAPGKGLEGVSGLDSVGATGYAESVKGRFTISRDNSKNTLYLQMNSLRAEDTAVYYCVVDPASAKVTYGSWSTPSYAYWGQGTLVTVSS
notes: also called anti-GPC2 VHH-hIgG1Fc; not shown: human IgG1 Fc fragment (hIgG1Fc)
no binding (tested: about 300 nM): all assays above

B2: AS79236VH6-hIgG1Fc (Fc fusion)
chain: EVQLVESGGGLVQPGGSLRLSCAVSGYTYSSYCMAWFRQAPGKGLEGVASIDAGGRTTYVDSVKGRFTISKDNAKNSLYLQMNSLRAEDTAMYYCAVDVRTRCGGTWDGEAVYFPYWGQGTLVTVSS
notes: as for B1
no binding (tested: about 300 nM): all assays above

B3: AS70950VH6-hIgG1Fc (Fc fusion)
chain: EVQLVESGGGLVQPGGSLRLSCAISEFTYKNTCVGWFRQAPGKGREGVAAIDSDGNTNYVDSVKGRFTISQDNSKNTVYLQMNSLRAEDTAMYYCAAGAYCGRLLLWIGNYAYWGQGTLVTVSS
notes: as for B1
no binding (tested: about 300 nM): all assays above
